Results on four molecules are retold here after paper PMC4072690 (PLoS ONE, 2014).

The target of assay [1] is T1, Escherichia coli GroEL, endogenous (Escherichia coli TG1 (K-12) and BL21, UniProt P0A6F5).
T1 construct: also called EcGroEL
In words: ELISA. To be noted: one partner purified. (In general: In an ELISA, binding on a coated surface is turned into a signal by an enzyme label.)

Assay [2] addresses Francisella tularensis LVS recombinant GroEL with N-terminal His tag (Francisella tularensis subsp. …, UniProt P94798, strain). The assay is described as follows: ELISA. Particulars: one partner purified.
The target of assay [3] is T2, GroEL of Francisella tularensis SchuS4, endogenous (Francisella tularensis subsp. …, UniProt Q5NEE1).
T2 construct: source: endogenous, SchuS4 NP40 lysate
In words: ELISA. To be noted: one partner purified.

For assay [4], the target named is T3, purified FtGroEL used in the DXMS experiments (Francisella tularensis, strain not …, UniProt Q5NEE1).
T3 construct: copies: 14
In words: HDX-MS. To be noted: both partners purified.

Assay [5] has as its target T4, Francisella tularensis SchuS4 recombinant GroEL with N-terminal His tag (Francisella tularensis subsp. …, UniProt Q5NEE1).
T4 construct: source: E. coli BL21(DE3)pLysS, pET14b, IPTG induced, in BugBuster lysate; not shown: His6, N-terminal, kept
In words: Western blot. Particulars: one partner purified.

The target in assay [6] is GroEL of Francisella tularensis LVS, endogenous (Francisella tularensis subsp. …, UniProt P94798, strain). In words: competition Western blot. To be noted: one partner purified. For orientation: Immunoblotting shows a protein as a band on a membrane.
Assay [7] concerns the target T4, Francisella tularensis SchuS4 …. In words: ELISA. Particulars: one partner purified.
Assay [8] concerns the target T1, Escherichia coli GroEL, endogenous. The assay is described as follows: Western blot. Particulars: one partner purified.

B1: Ab64 mouse monoclonal antibody (IgG2a,κ) specific for FtGroEL (antibody, V domains shown)
VH: EVQLLESGPELVRLGASVKVSCKASGYSFTDYNMYWVKQSHGKSLEWIGYIDPYNGDASYNQKFKGKATLTVDKSSSTAFMHLNSLTSEDSAVYYCARTGYYYGRSYAMDYWGQGTSVTVSS
VL: DIVMTQAAPSVPVTPGESVSISCRSSKSLLHSNGNTYLYWFLQRPGQSPQLLIYRMSNLASGVPDRFSGSGSGTAFTLRISKVEAEDVGVYYCMQHLEYPYTFGGGTKLDVK
notes: also called Ab64 IgG
B1: the binding result in assay [1] is “no binding”; in assay [2] it was “binds”; in assay [3], “binds”; in assay [4] it was “binds”; in assay [5], “binds”; in assay [6] it was “binds”.

B2: Ab64 Fab (Fab, V domains shown)
VH: B1 VH
VL: B1 VL
notes: also called Fab fragment of Ab64; source: cleavage of purified Ab64 IgG with the Pierce Fab Preparation Kit
Regarding B2, in assay [4], the binding result is listed as “binds”.

B3: Ab53 mouse monoclonal antibody (IgG2a,κ) specific for FtGroEL (antibody, V domains shown)
VH: EVKLLESGGGLVQPGGSMKLSCVASGFTFSIFWMNWVRQSPEKGLEWVAEVRLKSNNYATHYAESVKGRFTISRDDSKSGVYLQMNNLRAEDTGIYYCTRGYYGSNYGEYWGQGTTLTVSS
VL: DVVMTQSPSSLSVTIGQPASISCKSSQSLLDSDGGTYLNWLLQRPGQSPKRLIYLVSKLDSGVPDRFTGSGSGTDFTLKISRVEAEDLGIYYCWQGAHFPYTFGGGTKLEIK
notes: also called Ab53 IgG
Turning to B3, the binding result in assay [7], in assay [2], in assay [3], in assay [4], in assay [8] and in assay [6] was “binds” in each case.

B4: Ab53 Fab (Fab, V domains shown)
VH: B3 VH
VL: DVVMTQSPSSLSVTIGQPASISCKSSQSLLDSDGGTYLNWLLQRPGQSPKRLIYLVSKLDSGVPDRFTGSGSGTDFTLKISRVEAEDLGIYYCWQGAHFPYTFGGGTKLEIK
notes: also called Fab fragment of Ab53; source: cleavage of purified Ab53 IgG with the Pierce Fab Preparation Kit
Turning to B4, in assay [4], the binding result was “binds”.
